B1: ZNF263 (parent)
chain: FGGNPRFLSLHRAHLGEEAHKCLE
B2: WSB1 (parent)
chain: FSHDGLHVASLADDKMVRFWRIDE

Variants of: B1
Assay: protein stability index of a GFP-peptide fusion (GPS, HEK-293T) (PSI 1-6); higher = more stable
Conditions: c terminus: a fixed tail appended
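Further: lentivirally expressed fusions sorted by FACS into six bins by GFP to DsRed ratio, PSI derived from sequencing read proportions per bin multiplied by bin number.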

| Variant | protein stability index |
| --- | --- |
| A19L | 1.39 |
| A19C | 2.48 |
| A19P | 2.08 |
| A19M | 2.18 |
| A19F | 1.44 |
| E24L | 2.52 |
| E24A | 1.77 |
| E24M | 2.31 |
| E24W | 3.02 |
| E24F | 1.7 |
| E24D | 1.71 |
| L10M | 2.02 |
| L10G | 1.34 |
| L10D | 2.47 |
| L10A | 1.74 |
| G16F | 1.9 |
| G16T | 1.94 |
| G16D | 1.63 |
| G16K | 1.62 |
| G16P | 2.12 |
| L15V | 1.34 |
| L15G | 1.89 |
| L15N | 1.7 |
| L15W | 2.28 |
| F7R | 3.15 |

| Variant | protein stability index |
| --- | --- |
| F7T | 3.22 |
| F7M | 2.42 |
| F7I | 2.19 |
| F7A | 2.79 |
| F7L | 2.56 |
| F7Y | 2.04 |
| S9H | 1.8 |
| S9E | 1.97 |
| S9I | 2.59 |
| F1W | 1.99 |
| F1C | 2.63 |
| F1T | 3.48 |
| F1G | 3.98 |
| F1M | 3.81 |
| F1P | 3.7 |
| P5N | 3.16 |
| P5Y | 1.57 |
| N4M | 1.03 |
| N4Y | 1.53 |
| N4D | 2.13 |
| L8H | 1.86 |
| L8W | 3.8 |
| L8A | 2.43 |
| L8E | 2.54 |
| L8G | 2.1 |

| Variant | protein stability index |
| --- | --- |
| L8S | 2.03 |
| L8D | 3.1 |
| L8C | 1.4 |
| L8V | 2.5 |
| L8M | 2.25 |
| G2S | 1.74 |
| G2F | 2.55 |
| G2K | 2.87 |
| G2Y | 2.32 |
| G2L | 2.25 |
| G2D | 3.68 |
| G2N | 2.22 |
| L23A | 2.65 |
| L23K | 1.91 |
| L23M | 1.96 |
| R12M | 2.36 |
| R12W | 1.58 |
| R12E | 1.76 |
| R12H | 1.71 |
| R12L | 1.56 |
| R12T | 1.95 |
| R12Q | 2.22 |
| C22K | 2 |
| C22A | 1.78 |
| C22L | 1.38 |

| Variant | protein stability index |
| --- | --- |
| C22Q | 2.66 |
| C22M | 1.74 |
| C22T | 1.47 |
| C22W | 1.46 |
| E17K | 2.5 |
| E17M | 2.82 |
| E17A | 1.42 |
| E17Y | 1.56 |
| E17R | 1.78 |
| E17H | 1.82 |
| E17N | 1.97 |
| E17D | 1.36 |
| E17P | 1.41 |
| H11K | 1.91 |
| H11S | 3.19 |
| H11F | 2.41 |
| H11T | 3.17 |
| H11C | 2.23 |
| H11P | 1.75 |
| A13R | 2.08 |
| A13V | 1.79 |
| A13M | 2.21 |
| A13Y | 1.72 |
| A13T | 1.98 |
| R6D | 1.83 |

| Variant | protein stability index |
| --- | --- |
| R6Q | 1.82 |
| R6A | 3.22 |
| R6H | 2.37 |
| R6W | 5.27 |
| K21N | 2 |
| K21M | 2.76 |
| K21C | 1.98 |
| K21W | 1.6 |
| K21Y | 1.71 |
| K21D | 1.86 |
| K21Q | 2 |
| K21L | 2.14 |
| E18N | 1.07 |
| H14C | 1.95 |
| H14T | 3.21 |
| H14Y | 1.86 |
| H20G | 1.53 |
| H20A | 1.24 |
| H20S | 2.69 |
| H20Q | 1.04 |
| H20N | 1.49 |
| G3Y | 1.78 |
| G3T | 2.17 |
| G3M | 2.05 |
| G3C | 2 |

Variants of: B2
Assay: as above
Conditions: c terminus: a fixed tail appended

| Variant | protein stability index |
| --- | --- |
| E24W | 2.56 |
| E24V | 2.12 |
| E24D | 1.56 |
| E24A | 3.01 |
| E24H | 1.16 |
| E24C | 4.37 |
| E24Y | 1.97 |
| E24F | 2.68 |
| E24M | 2.05 |
| E24G | 1.23 |
| E24T | 1.62 |
| E24R | 1.78 |
| K15W | 1.67 |
| K15T | 1.44 |
| K15Q | 1.04 |
| K15F | 1.35 |
| K15R | 2.02 |
| K15H | 1.65 |
| K15E | 2.68 |
| K15N | 1.65 |
| K15A | 2.18 |

| Variant | protein stability index |
| --- | --- |
| K15V | 2.78 |
| L11P | 1.47 |
| L11H | 2.98 |
| L11V | 2.03 |
| L11G | 1.71 |
| L11M | 1.69 |
| L11D | 2.06 |
| L11I | 2.2 |
| L11Y | 1.3 |
| L11F | 2.5 |
| L11R | 1.66 |
| L11A | 2.24 |
| L11Q | 1.67 |
| A9T | 1.25 |
| A9M | 1.79 |
| A9H | 1.7 |
| A9L | 2.62 |
| A9K | 1.67 |
| A9D | 1.71 |
| A9S | 2.17 |
| A9E | 2.01 |

Reference: the supplement of paper PMC10567573
